Data reported in paper PMC11680790 (2024).

How the values were obtained:
[1] = target: T1, NXE’992, chimeric peptide (pyrazole-QRPRL[AIB]S[PipALA]VPFP) (UniProt Q9ULZ1, pyrazole on the N-terminus; AIB at position 6; PipALA at position 8); assay: SPR; pH 6.0
[2] = target: T1, NXE’992, chimeric peptide …; assay: SPR; pH 7.5

- Kd [1]: 21 nM
- Kd [2]: 3.3 nM
B1: human apelin stabilised receptor (NxStaR) (receptor)
chain: MEEGGDFDNYYGADNQSECEYTDWKSSGALIPAIYMLVFLLGTTGNGLVLWTVFRSSREKRRSADIFIASLAVADLTFVVTLPLWAVYTYRDYDWPFGTFFCKLSSYLIFVAMYASVFCLTGLSFDRYLAIVRPVANARLRLRVSGAVATAVLWVLAALLAMPVMVLRTTGDLENTTKVQCYMDYSMVATVSSEWAWEVGLGVSSTMVGFVVPLTIMLTCYFFAAQTIAGHFRKERIEGLRKRRRLLSIIVVLVVTFALCWMPYHLVKTLYMLGSLLHWPCDFDLFLMNIFPYCTCIAYVNSCLNPFLYAFFDPRFRQACTSMLCCGQSRCAGTSHSSSGEKSASYSSGHSQGPGPNMGKGGEQMHEKSIPYSQETLVVD
